Data: patent US8741840B2, “BMP-7 for use in treating neointimal hyperplasia” (Washington University, priority 2008, dated 2014)

How the values were obtained:
Type in all cases: in vivo, mouse
[1] = tested on: LDLR−/− high fat fed mice; assay: Histology of proximal aorta (alizarin red): calcified atherosclerotic plaques
Description: Tissue Preparation: Resected specimens were flash frozen in liquid nitrogen, then divided as follows: the heart, ascending aorta and aortic arch were separated from the descending aorta, and bisected sagittally through the aortic outflow tract. The descending aorta was bisected coronally, approximately halfway along its length. In order to visualize calcification in the tissue sections, Slices (5 μm thick) were cut and stained with von Kossa and Trap staining.
Additional mice were enrolled to the study for qualitative analysis of aortas to quantitate the effects of the treatments, because aortas of the experimental animals were destroyed by the technique of quantifying the aortic calcium content. Vascular calcification was largely aortic atherosclerotic plaque associated (FIG. 3), and punctate calcifications in the tunica media were observed. Panel A: Large lipid laden plaque (between arrows) in proximal aorta of a sham-operated high fat fed LDLR−/− mouse. Thick arrows identify focal calcifications in the base of the plaque. Panel B: A large calcified plaque (between arrows) in the proximal aorta of a CKD high fat fed LDLR−/− mouse. Panel C: A large lipid laden plaque (between arrows) in the proximal aorta of a BMP-7 treated CKD high fat fed LDLR−/− mouse. The stain is alizarin red. Magnification is 400× in A-C.

[2] = tested on: aortas of LDLR−/− high fat fed mice; assay: Aortic expression of calcification related genes by real time RT-PCR; settings: CKD mice, BMP-7, 3% CaCO3 or 3% LaCO3 treated
Procedure: Real Time Quantitative RT-PCR: Following reverse transcription performed as above, real time was performed using the MX 4000 (Strategene, La Jolla, Calif.), SYBR Green from Sigma (St. Louis) and the PCR kit from Invitrogen. Each reaction was performed in triplicate at 95° C., 45 sec, and 60° C., 30 sec, and 60 sec at 72° C. for 40 cycles. This was followed by a melt cycle, which consisted of stepwise increase in temperature from 72° C. to 99° C. […] Ct numbers (threshold values) were set within the exponential phase of PCR and were used to calculate the expression levels of the genes of interest. GAPDH was used as an internal standard and used to normalize the values. A standard curve consisting of the cT versus log cDNA dilutions (corresponding to the log copy numbers) was generated by amplifying serial dilutions of cDNA corresponding to an […] amount of amplicon.
Expression of calcification related genes. To relate the mechanism of phosphorus action detected in vitro to this model of CKD induced vascular calcification and hyperphosphatemia in vivo, the inventors of the instant invention analyzed aortic expression of the osteoblastic lineage genes including osterix message levels by real time RT-PCR. […] Data are expressed as the mean of the transcript levels relative to GAPDH expression in each aorta±SEM, N=3. […] (Hoffman 1994;Ducy P. et al., Mol Cell Biol 15:1858-1869, 1995)^32;41

[3] = tested on: AV anastomosis NH lesion in mice; assay: Neointimal hyperplasia lesion formation at arteriovenous fistula anastomosis in CKD and sham mice
Description: Six weeks after creation of CKD and sham mice as described above, animals underwent an AV fistula creation by anastomosing the left common carotid artery to the jugular vein in an end-to-side fashion. Under a sterile condition, a vertical incision was made in the left neck with the left common carotid artery and the adjacent external jugular vein carefully dissected out. The common carotid artery clamp was placed at the proximal portion with an 11-0 nylon suture and the common carotid artery was divided just proximal to the bifurcation. Next, the jugular vein was clamped proximally and distally and punctured in the middle portion with a 27 G syringe. After filling this vein segment with heparinized saline, the venotomy of 0.7 mm in length was performed. […]
Three weeks after AV fistula creation, animals were euthanized, and the AV anastomoses were perfusion-fixed via the left ventricle at 100 mm Hg pressure as described previously (Leidenfrost J E, et al., Am J Pathol. 2003; 163(2):773-778).^53 Before perfusion fixation, blood was drawn from the left ventricle for the biochemical analysis. Blood urea nitrogen (BUN), phosphorus, and calcium were measured by autoanalyzer techniques in the Animal Facility Clinical Laboratory at Washington University in St. Louis, Mo. […]

B1: BMP-7: bone morphogenetic protein-7 (osteogenic protein-1), mineralization-countering morphogen; provided by Johnson and Johnson (protein, listed as Homo sapiens)
chain: STGSKQRSQNRSKTPKNQEALRMANVAENSSSDQRQACKKHELYVSFRDLGWQDWIIAPEGYAAYYCEGECAFPLNSYMNATNHAIVQTLVHFINPETVPKPCCAPTQLNAISVLYFDDSSNVILKKYRNMVVRACGCH
size of the atherosclerotic lesions ([1]; proximal aorta (FIG. 3)): did not decrease the size of the atherosclerotic lesions | plaque associated calcium deposition ([1]; proximal aorta, alizarin red stain (FIG. 3)): diminished plaque associated calcium deposition | CBFA1 expression in aorta ([2]; relative to GAPDH (FIG. 9B)): inhibited | Osterix expression in aorta ([2]; relative to GAPDH (FIG. 9C)): inhibited | Osteocalcin expression in aorta ([2]; relative to GAPDH (FIG. 9D)): inhibited | NH lesion formation induced by CKD ([3]; CKD animals, BMP-7 100 μg/kg intraperitoneally twice a week, P<0.01 (FIG. 12)): eliminated the stimulation of NH lesion formation induced by CKD | NH lesion development ([3]; sham operated animals, BMP-7 100 μg/kg intraperitoneally twice a week (FIG. 12)): no effect
